# Assay results taken from PMC2965261 (Nucleic Acids Research, 2010).
# T1: Candida albicans Ino4 (C. albicans, UniProt A0A1D8PH18 1-130)
# T1 sequence: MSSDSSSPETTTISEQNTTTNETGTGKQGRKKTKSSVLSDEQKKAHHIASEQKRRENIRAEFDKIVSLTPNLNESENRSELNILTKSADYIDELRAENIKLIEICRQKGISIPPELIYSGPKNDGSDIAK
# B1: Candida albicans Ino2 (natural protein)
# chain: MSSTVTQTMNNNPTEKVTFTASNSQADFDLLDIFSNDMDFEQAYDMYNNLQEKNAMGSFEQLQKVQALNQQYVSNLQPPSSAQFPDQFAYERAQILNGEYNKQSGLMNDATNKNYSFNDDTFDQFFTNTESNALEKFLDNLANPVASVNPLQFYNNTRTSVPDEDVDLSFELHTMKVPQQFKPRSQSLEHNPPLQQKVRFTEEEHAALKQELTEAFAHPCTQLPSPSTTEYKPKPTTPKVVKQFVTPPNSGDESRKRNSDIESDESEEETTPTTKKRKRTSSKPLLSVEQKRLNHSHSEQKRRQLCKFAYQRCLELIIDLDAFNKLPELNESERKSKRARVNKDGLPNLSKHNALIRISNEMILIKSMNDSLKKLIENR
# Molecular target: T1, Candida albicans Ino4
# Assay: two-hybrid
binder,measurement,value
B1,"galactosidase activity, fold of the background activity",2.5 fold
